Values quoted from earlier work in PMC10466379.

Legend:
Test in all cases: not stated (values taken from the PKAD database; the article says PKAD values come mainly from NMR or IR titrations)
Details in all cases: not stated (the curated set excludes proteins with ligands, nucleic acids and structural metal ions)
[1] = target: Glu90 (UniProt position 172, YGRGLEYIYAD)
[2] = target: Glu132 (UniProt position 214, KSEAQEKKEKL)
[3] = target: Glu34 (UniProt position 116, GQPMTERLLLV)
[4] = target: Glu20 (UniProt position 102, IKAIDEDTVKL)
[5] = target: Glu72 (UniProt position 154, ENAKKEEVEFD)
[6] = target: Glu25 (UniProt position 107, GDTVKEMYKGQ)
[7] = target: Glu37 (UniProt position 119, MTFRLELVDTP)
[8] = target: Glu38 (UniProt position 120, TFRLLEVDTPE)
[9] = target: Glu100 (UniProt position 182, DGKMVEEALVR)
[10] = target: Glu118 (UniProt position 200, YVYKPENTHEQ)
[11] = target: Glu41 (UniProt position 123, LLLVDEPETKH)
[12] = target: Glu62 (UniProt position 144, EASAFEKKMVE)
[13] = target: Glu23 (UniProt position 105, IDGDTEKLMYK)
[14] = target: Glu91 (UniProt position 173, GRGLAEIYADG)

## staphylococcal nuclease variant A90E (parent PDB 2LKV) (Staphylococcus aureus (inferred from PDB 2LKV; not stated in the article); A90E)
[1]
  pKa: 6.4

## staphylococcal nuclease variant A132E (parent PDB 2LKV) (Staphylococcus aureus (inferred from PDB 2LKV; not stated in the article); A132E)
[2]
  pKa: 7

## staphylococcal nuclease variant F34E (parent PDB 2LKV) (Staphylococcus aureus (inferred from PDB 2LKV; not stated in the article); F34E)
[3]
  pKa: 7.3

## staphylococcal nuclease variant G20E (parent PDB 2LKV) (Staphylococcus aureus (inferred from PDB 2LKV; not stated in the article); G20E)
[4]
  pKa: 4.5

## staphylococcal nuclease variant I72E (parent PDB 2LKV) (Staphylococcus aureus (inferred from PDB 2LKV; not stated in the article); I72E)
[5]
  pKa: 7.3

## staphylococcal nuclease variant L25E (parent PDB 2LKV) (Staphylococcus aureus (inferred from PDB 2LKV; not stated in the article); L25E)
[6]
  pKa: 7.5

## staphylococcal nuclease variant L37E (parent PDB 2LKV) (Staphylococcus aureus (inferred from PDB 2LKV; not stated in the article); L37E)
[7]
  pKa: 5.2

## staphylococcal nuclease variant L38E (parent PDB 2LKV) (Staphylococcus aureus (inferred from PDB 2LKV; not stated in the article); L38E)
[8]
  pKa: 6.8

## staphylococcal nuclease variant N100E (parent PDB 2LKV) (Staphylococcus aureus (inferred from PDB 2LKV; not stated in the article); N100E)
[9]
  pKa: 7.6

## staphylococcal nuclease variant N118E (parent PDB 2LKV) (Staphylococcus aureus (inferred from PDB 2LKV; not stated in the article); N118E)
[10]
  pKa: 4.5

## staphylococcal nuclease variant T41E (parent PDB 2LKV) (Staphylococcus aureus (inferred from PDB 2LKV; not stated in the article); T41E)
[11]
  pKa: 6.8

## staphylococcal nuclease variant T62E (parent PDB 2LKV) (Staphylococcus aureus (inferred from PDB 2LKV; not stated in the article); T62E)
[12]
  pKa: 7.7

## staphylococcal nuclease variant V23E (parent PDB 2LKV) (Staphylococcus aureus (inferred from PDB 2LKV; not stated in the article); V23E)
[13]
  pKa: 7.1

## staphylococcal nuclease variant Y91E (parent PDB 2LKV) (Staphylococcus aureus (inferred from PDB 2LKV; not stated in the article); Y91E)
[14]
  pKa: 7.1
